Measured values as given in patent US8900593B2 (Indiana University Research and Technology Corporation, priority 2007, dated 2014).
Where two headings read alike, the source gives them in different places. Where no end group is shown, it is not given here. [ ]: non-standard residue; d: D form. The star is where a group is joined. Isobutyryl(2-imidazol-4-yl) = CC(C)(C(=O)*)c1c[nH]cn1; DMIA = not defined here; PEG = not defined here; Aib = CC(C)(N)C(=O)O

Columns and labels:
GLP-1 receptor = target: T1, GLP-1 receptor (Homo sapiens, UniProt P43220); assay: Functional assay-cAMP synthesis, luciferase reporter in HEK293 cells co-transfected with GLP-1 receptor; format: cell-based
T1 construct: expressed in transfected cells; host or cells: HEK293
T1 sequence (P43220 24-463, species assumed): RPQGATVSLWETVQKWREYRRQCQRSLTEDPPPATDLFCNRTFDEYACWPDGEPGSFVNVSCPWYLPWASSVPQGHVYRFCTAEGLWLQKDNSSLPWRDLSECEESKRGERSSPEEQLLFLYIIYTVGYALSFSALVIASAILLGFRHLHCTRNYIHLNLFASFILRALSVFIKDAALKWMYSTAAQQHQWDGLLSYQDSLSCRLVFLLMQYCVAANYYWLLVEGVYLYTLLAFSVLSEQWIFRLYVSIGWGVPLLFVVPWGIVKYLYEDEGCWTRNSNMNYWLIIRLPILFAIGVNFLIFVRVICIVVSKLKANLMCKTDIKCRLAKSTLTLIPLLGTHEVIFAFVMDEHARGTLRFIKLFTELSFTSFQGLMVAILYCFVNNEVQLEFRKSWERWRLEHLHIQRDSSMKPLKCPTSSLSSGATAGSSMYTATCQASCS

glucagon receptor = target: T2, glucagon receptor (Homo sapiens, UniProt P47871); assay: Functional assay-cAMP synthesis, luciferase reporter in HEK293 cells co-transfected with glucagon receptor; format: cell-based; details: for Parent w/PEG % Potency Relative to Native GR / Parent w/o PEG % Potency Relative to Native GR: Table 12; for Parent w/PEG % Potency Relative to Native GR: pegylated peptide; for Parent w/o PEG % Potency Relative to Native GR: peptide without PEG
T2 construct: expressed in transfected cells; host or cells: HEK293
T2 sequence (P47871 26-477): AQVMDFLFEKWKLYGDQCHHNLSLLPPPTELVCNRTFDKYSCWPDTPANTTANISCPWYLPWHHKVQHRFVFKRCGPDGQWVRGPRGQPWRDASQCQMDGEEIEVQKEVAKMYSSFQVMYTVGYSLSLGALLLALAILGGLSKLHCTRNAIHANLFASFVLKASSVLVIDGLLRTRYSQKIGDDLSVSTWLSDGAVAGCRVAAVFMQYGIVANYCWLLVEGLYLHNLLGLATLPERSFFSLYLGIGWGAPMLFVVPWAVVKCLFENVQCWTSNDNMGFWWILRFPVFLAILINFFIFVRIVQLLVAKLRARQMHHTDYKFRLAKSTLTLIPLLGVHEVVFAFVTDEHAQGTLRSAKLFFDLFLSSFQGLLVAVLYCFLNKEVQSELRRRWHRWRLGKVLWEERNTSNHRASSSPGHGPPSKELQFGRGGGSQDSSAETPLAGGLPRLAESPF

[1] = Glucagon Receptor EC50(nM), Table 10, GLP-1 17-26 glucagon analogs

Parent w/PEG % Potency Relative to Native GLP-1R (GLP-1 receptor; Table 12, pegylated peptide) | Substance | Parent w/PEG % Potency Relative to Native GR (glucagon receptor) | Parent w/o PEG % Potency Relative to Native GR (glucagon receptor) | Parent w/PEG % Potency Relative to Native GLP-1R (GLP-1 receptor) | Parent w/o PEG % Potency Relative to Native GLP-1R (GLP-1 receptor) | also measured
– | HSQGTFTSDYSKYLDEQAAKEFIAWLVKG-NH2 [E16 GLP(17-29)-NH2, HSQGTFTSDYSKYLDEQAAKEFIAW LVKGa] | – | – | – | – | EC50 (GLP-1 receptor): 10 pM; EC50 (glucagon receptor; [1]): 0.46 nM
– | HSQGTFTSDYSKYLDEQAAKEFIEWLVKG-NH2 [E16 GLP(17-29)-NH2 E24, K28] | – | – | – | – | EC50 (GLP-1 receptor): 7 pM; EC50 (glucagon receptor; [1]): 0.23 nM
– | HSQGTFTSDYSKYLDSRRAQDFVQWLVKGGPSSGAPPPS-NH2 [-VKGG^30 PSSGAPPPS (SEQ ID NO: 524)] | – | – | – | – | EC50 (GLP-1 receptor): 210 pM; GLP 1 Receptor Relative Potency (%) (GLP-1 receptor; Table 11, relative to GLP-1-VKGG30 (SEQ ID NO: 527) = 100): 12%; EC50 (glucagon receptor): 1.16 nM; Glucagon Receptor Relative Potency (%) (glucagon receptor; Table 11, relative to glucagon (SEQ ID NO: 1) = 100): 7%
54.3% | HX2QGT FTSDYSKYLDEQAAKEFIAWLMNC*a (H[Aib]QGTFTSDYSKYLDEQAAKEFIAWLMNC-NH2; also: optional PEG on Cys29) [Chimera AIB2, Cys29 (SEQ ID NO: 487), X2=AIB; C* is Cys or Cys attached to PEG] | 5.6% | 20.1% | – | – | Parent w/o PEG % Potency Relative to Native GLP-1R (GLP-1 receptor; Table 12, peptide without PEG): 124.6%
– | HX2QGT FTSDYSKYLDEQAAKEFIAWLMNGGPSSGAPPPSC*a (H[Aib]QGTFTSDYSKYLDEQAAKEFIAWLMNGGPSSGAPPPSC-NH2; lactam (positions not given here); also: optional PEG on Cys40) [X2=AIB; C* is Cys or Cys attached to PEG] | 3.2% | 14.2% | 63.6% | 169.6% | –
– | HX2QGT FTSDY SKYLD EQAAK EFIC*W LMNGG PSSGA PPPSa (H[Aib]QGTFTSDYSKYLDEQAAKEFICWLMNGGPSSGAPPPS-NH2; lactam (positions not given here); also: optional PEG on Cys24) [X2=AIB; C* is Cys or Cys attached to PEG] | 1.4% | 25.2% | 96.4% | 381.5% | –
– | HX2QGT FTSDY SKYLD EQAAK EFIC*W LMNTa | 9.2% | 114.2% | 38.0% | 230.4% | –
82.5% | HX2QGT FTSDY SKYLD EQAAK EFIC*W LMNTa [Chimera AIB2, Cys24 (SEQ ID NO: 486)] | 2.6% | 15.4% | – | – | Parent w/o PEG % Potency Relative to Native GLP-1R (GLP-1 receptor; Table 12, peptide without PEG): 160.6%
73.5% | HX2QGT FTSDY SKYLD ERAAK DFVC*W LMNTa (H[Aib]QGTFTSDYSKYLDERAAKDFVC(PEG)WLMNT-NH2; reading uncertain) [E16, K20AIB2, A18 Cys24 (SEQ ID NO: 492), X2=AIB; C* is Cys attached to PEG in the tested form] | 1.1% | – | – | – | –
– | HX2QGT FTSDY SKYLD ERRAK DFVC*W LMNTa (H[Aib]QGTFTSDYSKYLDERRAKDFVCWLMNT-NH2; lactam (positions not given here); also: optional PEG on Cys24) [X2=AIB; C* is Cys or Cys attached to PEG] | 15.8% | 108.3% | 31.0% | 96.9% | –
– | X1SQGT FTSDY SKYLD EQAAK EFIC*W LMNTa | 19.1% | 160.7% | 12.5% | 82.5% | –
– | X1SQGT FTSDY SKYLD ERRAK DFVC*W LMNGG PSSGA PPPSa ([DMIA]SQGTFTSDYSKYLDERRAKDFVCWLMNGGPSSGAPPPS-NH2; lactam (positions not given here); not fully specified; reading uncertain) [X1=DMIA; C* is Cys or Cys attached to PEG] | 12.6% | 116.0% | 11.3% | 78.3% | –
27.3% | X1SQGT FTSDYSKYLD EQAAK EFIAW LMNC*a ([Isobutyryl(2-imidazol-4-yl)]SQGTFTSDYSKYLDEQAAKEFIAWLMNC(PEG)-NH2; reading uncertain) [Chimera DMIA1, Cys29 (SEQ ID NO: 520), X1=DMIA; C* is Cys attached to PEG in the tested form] | 5.3% | – | – | – | –
19.3% | X1SQGT FTSDYSKYLD EQAAK EFIC*W LMNTa [Chimera DMIA1, Cys24 (SEQ ID NO: 519)] | 6.9% | 28.9% | – | – | Parent w/o PEG % Potency Relative to Native GLP-1R (GLP-1 receptor; Table 12, peptide without PEG): 64.5%

Substance | Parent w/PEG % Potency Relative to Native GLP-1R (GLP-1 receptor; Table 12, pegylated peptide) | Parent w/PEG % Potency Relative to Native GR (glucagon receptor) | Parent w/o PEG % Potency Relative to Native GR (glucagon receptor) | Parent w/PEG % Potency Relative to Native GLP-1R (GLP-1 receptor) | Parent w/o PEG % Potency Relative to Native GLP-1R (GLP-1 receptor) | also measured
HX2QGT FTSDYSKYLDEQAAKEFIAWLMNGGPSSGAPPPSC*a (H[Aib]QGTFTSDYSKYLDEQAAKEFIAWLMNGGPSSGAPPPSC-NH2; also: optional PEG on Cys40) [X2=AIB; C* is Cys or Cys attached to PEG] | 68.8% | 0.3% | 2.2% | – | – | Parent w/o PEG % Potency Relative to Native GLP-1R (GLP-1 receptor; Table 12, peptide without PEG): 359.1%
HX2QGT FTSDY SKYLD EQAAK EFIC*W LMNGG PSSGA PPPSa (H[Aib]QGTFTSDYSKYLDEQAAKEFICWLMNGGPSSGAPPPS-NH2; also: optional PEG on Cys24) [X2=AIB; C* is Cys or Cys attached to PEG] | 95.4% | 0.2% | 2.5% | – | – | Parent w/o PEG % Potency Relative to Native GLP-1R (GLP-1 receptor; Table 12, peptide without PEG): 457.8%
HX2QGT FTSDY SKYLD ERAAK DFVC*W LMNGG PSSGA PPPSa (H[Aib]QGTFTSDYSKYLDERAAKDFVC(PEG)WLMNGGPSSGAPPPS-NH2; reading uncertain) [X2=AIB; C* is Cys attached to PEG in the tested form] | 88.5% | 0.1% | – | – | – | –
